Patent US20060252116A1, “Icam-4 binding sites” (priority 2002, published 2006)

Tested on: HT1080 cells (αv integrin)
Test: Adhesion of HT1080 cells to mutant human ICAM-4Fc
Format: cell-based
Conditions: FIG. 4; single residue mutants of human ICAM-4Fc, titrated coating concentration
Method: Cell adhesion assays were performed as described in Spring et al. 2001 (supra). Immulon4 96 well plates (Dynex Technologies, Billingshurst, United Kingdom) were coated with 1 μg/well goat-antihuman-Fc (Sigma, Poole, United Kingdom) for 24 hours at 4° C., washed three times with PBS and coated with an Fc fusion ICAM-4 protein for 18 hours at 4° C. before blocking with 0.4% BSA PBS for 2 hours at 22° C. Cells were labelled with 10 μg/ml 2′,7′-bis-(2-carboxyethyl)-5-(and-6-) carboxyfluorescein acetoxymethyl ester in assay buffer (IMEM, 2 mM EGTA, 10 μg/ml human ivIgG) for 15 minutes at 37° C. HT1080 cells were activated with 80 μM phorbol myristate acetate prior to both cells being washed with assay buffer containing 2 mM Mn^2+. Cells, at 5×10^4 cells per well, were added to the ICAM-4Fc-coated plates for 30 minutes at 37° C., prior to being given repeated washes in assay buffer and read on a fluorescence microplate reader (excitation 485 nm, emission 530 nm). The percentage of bound cells was calculated after each wash. Peptide inhibition was performed by incubating the cells with 500 μM peptide at 0° C. for 15 minutes ahead of their addition, still in the presence of 500 μM peptide to the ICAM-4Fc coated plates. In peptide inhibition studies the appropriate ICAM-4Fc coating concentration for each cell line was pre-determined by titration of ICAM-4Fc and the lowest concentration at which maximal binding was achieved was used to coat the plates
Point mutations were inserted into ICAM-4 in pIg vector (see Simmons D L, 1993, Cloning cell surface molecules by transient expression in mammalian cells, In: Hartley D A, ed. Cellular interactions in development. New York, N.Y.:IRL press, 93-127) by PCR amplification over two stages. Oligonucleotides (see “Mutagenesis primers” below) containing mismatched bases, together with 5′-[…] (SEQ ID NO: 14) and 3′-[…] (SEQ ID NO: 15) primers were used to generate two overlapping products. Following gel purification the two overlapping PCR products were annealed together before final amplification using the 5′ and 3′ primers. The final PCR product was restricted and ligated into pIg vector. All mutant clones were verified by sequence analysis. Mutant ICAM-4Fc proteins were expressed in COS-7 cells as described in Simmons D L (1993, supra), and purified from culture supernatant on protein A-Sepharose.

| Molecule | adhesion of HT1080 cells to mutant ICAM-4Fc compared with wild-type |
| --- | --- |
| F18A mutant: human ICAM-4Fc fusion protein with point mutation F18A (protein, left off: a dimerising Fc or GST, human ICAM-4Fc fusion protein with point mutation F18A) AQSPKGSPLAPSGTSVPAWVRMSPEFVAVQPGKSVQLNCSNSCPQPQNSSLRTPLRQGKTLRGPGWVSYQLLDVRAWSSLAHCLVTCAGKTRWATSRITAYKPPHSVILEPPVLKGRKYTLRCHVTQVFPVGYLVVTLRHGSRVIYSESLERFTGLDLANVTLTYEFAAGPRDFWQPVICHARLNLDGLVVRNSSAPITLMLAWSPAPTA | decrease in binding |
| K118E mutant: human ICAM-4Fc fusion protein with point mutation K118E (protein, left off: a dimerising Fc or GST, human ICAM-4Fc fusion protein with point mutation K118E) AQSPKGSPLAPSGTSVPFWVRMSPEFVAVQPGKSVQLNCSNSCPQPQNSSLRTPLRQGKTLRGPGWVSYQLLDVRAWSSLAHCLVTCAGKTRWATSRITAYKPPHSVILEPPVLKGREYTLRCHVTQVFPVGYLVVTLRHGSRVIYSESLERFTGLDLANVTLTYEFAAGPRDFWQPVICHARLNLDGLVVRNSSAPITLMLAWSPAPTA | decrease the level of adhesion |
| W66A mutant: human ICAM-4Fc fusion protein with point mutation W66A (protein, left off: a dimerising Fc or GST, human ICAM-4Fc fusion protein with point mutation W66A) AQSPKGSPLAPSGTSVPFWVRMSPEFVAVQPGKSVQLNCSNSCPQPQNSSLRTPLRQGKTLRGPGAVSYQLLDVRAWSSLAHCLVTCAGKTRWATSRITAYKPPHSVILEPPVLKGRKYTLRCHVTQVFPVGYLVVTLRHGSRVIYSESLERFTGLDLANVTLTYEFAAGPRDFWQPVICHARLNLDGLVVRNSSAPITLMLAWSPAPTA | decrease the level of adhesion |
| V20T mutant: human ICAM-4Fc fusion protein with point mutation V20T (protein, left off: a dimerising Fc or GST, human ICAM-4Fc fusion protein with point mutation V20T) AQSPKGSPLAPSGTSVPFWTRMSPEFVAVQPGKSVQLNCSNSCPQPQNSSLRTPLRQGKTLRGPGWVSYQLLDVRAWSSLAHCLVTCAGKTRWATSRITAYKPPHSVILEPPVLKGRKYTLRCHVTQVFPVGYLVVTLRHGSRVIYSESLERFTGLDLANVTLTYEFAAGPRDFWQPVICHARLNLDGLVVRNSSAPITLMLAWSPAPTA | decrease in binding |
| R92E mutant: human ICAM-4Fc fusion protein with point mutation R92E (protein, left off: a dimerising Fc or GST, human ICAM-4Fc fusion protein with point mutation R92E) AQSPKGSPLAPSGTSVPFWVRMSPEFVAVQPGKSVQLNCSNSCPQPQNSSLRTPLRQGKTLRGPGWVSYQLLDVRAWSSLAHCLVTCAGKTEWATSRITAYKPPHSVILEPPVLKGRKYTLRCHVTQVFPVGYLVVTLRHGSRVIYSESLERFTGLDLANVTLTYEFAAGPRDFWQPVICHARLNLDGLVVRNSSAPITLMLAWSPAPTA | decrease in binding |
| A94L mutant: human ICAM-4Fc fusion protein with point mutation A94L (protein, left off: a dimerising Fc or GST, human ICAM-4Fc fusion protein with point mutation A94L) AQSPKGSPLAPSGTSVPFWVRMSPEFVAVQPGKSVQLNCSNSCPQPQNSSLRTPLRQGKTLRGPGWVSYQLLDVRAWSSLAHCLVTCAGKTRWLTSRITAYKPPHSVILEPPVLKGRKYTLRCHVTQVFPVGYLVVTLRHGSRVIYSESLERFTGLDLANVTLTYEFAAGPRDFWQPVICHARLNLDGLVVRNSSAPITLMLAWSPAPTA | decrease in binding |
| S96A mutant: human ICAM-4Fc fusion protein with point mutation S96A (protein, left off: a dimerising Fc or GST, human ICAM-4Fc fusion protein with point mutation S96A) AQSPKGSPLAPSGTSVPFWVRMSPEFVAVQPGKSVQLNCSNSCPQPQNSSLRTPLRQGKTLRGPGWVSYQLLDVRAWSSLAHCLVTCAGKTRWATARITAYKPPHSVILEPPVLKGRKYTLRCHVTQVFPVGYLVVTLRHGSRVIYSESLERFTGLDLANVTLTYEFAAGPRDFWQPVICHARLNLDGLVVRNSSAPITLMLAWSPAPTA | decrease in binding |
| T95V mutant: human ICAM-4Fc fusion protein with point mutation T95V (protein, left off: a dimerising Fc or GST, human ICAM-4Fc fusion protein with point mutation T95V) AQSPKGSPLAPSGTSVPFWVRMSPEFVAVQPGKSVQLNCSNSCPQPQNSSLRTPLRQGKTLRGPGWVSYQLLDVRAWSSLAHCLVTCAGKTRWAVSRITAYKPPHSVILEPPVLKGRKYTLRCHVTQVFPVGYLVVTLRHGSRVIYSESLERFTGLDLANVTLTYEFAAGPRDFWQPVICHARLNLDGLVVRNSSAPITLMLAWSPAPTA | decrease in binding |
| N160A mutant: human ICAM-4Fc fusion protein with point mutation N160A (protein, left off: a dimerising Fc or GST, human ICAM-4Fc fusion protein with point mutation N160A) AQSPKGSPLAPSGTSVPFWVRMSPEFVAVQPGKSVQLNCSNSCPQPQNSSLRTPLRQGKTLRGPGWVSYQLLDVRAWSSLAHCLVTCAGKTRWATSRITAYKPPHSVILEPPVLKGRKYTLRCHVTQVFPVGYLVVTLRHGSRVIYSESLERFTGLDLAAVTLTYEFAAGPRDFWQPVICHARLNLDGLVVRNSSAPITLMLAWSPAPTA | elevated level of adhesion |
| T162V mutant: human ICAM-4Fc fusion protein with point mutation T162V (protein, left off: a dimerising Fc or GST, human ICAM-4Fc fusion protein with point mutation T162V) AQSPKGSPLAPSGTSVPFWVRMSPEFVAVQPGKSVQLNCSNSCPQPQNSSLRTPLRQGKTLRGPGWVSYQLLDVRAWSSLAHCLVTCAGKTRWATSRITAYKPPHSVILEPPVLKGRKYTLRCHVTQVFPVGYLVVTLRHGSRVIYSESLERFTGLDLANVVLTYEFAAGPRDFWQPVICHARLNLDGLVVRNSSAPITLMLAWSPAPTA | elevated level of adhesion |
| R97E mutant: human ICAM-4Fc fusion protein with point mutation R97E (protein, left off: a dimerising Fc or GST, human ICAM-4Fc fusion protein with point mutation R97E) AQSPKGSPLAPSGTSVPFWVRMSPEFVAVQPGKSVQLNCSNSCPQPQNSSLRTPLRQGKTLRGPGWVSYQLLDVRAWSSLAHCLVTCAGKTRWATSEITAYKPPHSVILEPPVLKGRKYTLRCHVTQVFPVGYLVVTLRHGSRVIYSESLERFTGLDLANVTLTYEFAAGPRDFWQPVICHARLNLDGLVVRNSSAPITLMLAWSPAPTA | decrease in binding |
| W19A mutant: human ICAM-4Fc fusion protein with point mutation W19A (protein, left off: a dimerising Fc or GST, human ICAM-4Fc fusion protein with point mutation W19A) AQSPKGSPLAPSGTSVPFAVRMSPEFVAVQPGKSVQLNCSNSCPQPQNSSLRTPLRQGKTLRGPGWVSYQLLDVRAWSSLAHCLVTCAGKTRWATSRITAYKPPHSVILEPPVLKGRKYTLRCHVTQVFPVGYLVVTLRHGSRVIYSESLERFTGLDLANVTLTYEFAAGPRDFWQPVICHARLNLDGLVVRNSSAPITLMLAWSPAPTA | decrease in binding |
